Assay results published in patent publication US20210347873A1 (SHANGHAI PHARMAEXPLORER, published 2021).

T1: human APRIL protein (human, UniProt O75888 105-250, limits assumed)
T1 construct: Bought protein; also called recombinant APRIL protein
T1 sequence (looked up): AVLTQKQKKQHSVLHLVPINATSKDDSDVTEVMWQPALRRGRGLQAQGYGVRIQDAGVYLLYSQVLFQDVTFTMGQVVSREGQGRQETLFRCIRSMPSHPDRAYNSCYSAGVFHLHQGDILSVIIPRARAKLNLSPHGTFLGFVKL

T2: cynomolgus BLyS (full length, arginine 132 mutated to histidine) on CHO-K1 cells (cynomolgus, UniProt Q9Y275 1-285 (human entry))
T2 construct: also called cyno BLyS; CHO-K1 cynoBLyS
T2 chain: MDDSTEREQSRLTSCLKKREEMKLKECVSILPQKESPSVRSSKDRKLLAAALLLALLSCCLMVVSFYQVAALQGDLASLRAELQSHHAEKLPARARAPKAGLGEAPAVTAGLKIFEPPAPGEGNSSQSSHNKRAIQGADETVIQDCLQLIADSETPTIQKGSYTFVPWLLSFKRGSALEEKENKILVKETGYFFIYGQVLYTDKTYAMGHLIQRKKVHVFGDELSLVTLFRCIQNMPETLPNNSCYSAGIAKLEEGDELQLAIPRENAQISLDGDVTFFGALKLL

B1: 8E7D9C7F5 (antibody, V domains shown)
VH: QVQLQQSGVELARPGASVKLSCKASGYTFTSYGISWVKQRTGQALEWIGEIYPRSGNTYYNEKFKGKATLTADKSSSTAYMELRSLTSEDSAVYFCARSGPITTLVATDYGMDYWGQGTSVTVSS
VL: DIVLTQSPASLAVSLGQRATISCRASKSVSTSSYSYMHWYQQKPGQPPKLLIKFASNLESGVPARFSGSGSGTDFTLNIHPVEEEDAATYYCQHSREFPYTFGGGTKLEIK
notes: Mouse hybridoma antibody purified on Protein G
B2: 78C11D2D12 (antibody, V domains shown)
VH: QVQLQQSGAELVRPGTSVKISCKASGYAFTNYWLGWVKQRPGHGLEWIGDIYPGSGNTYYNEKFKGKATLTADKSSSTAYMQLSSLTSEDSAVFFCAAYLYAMDYWGQGTSVTVSS
VL: QIVLTQSPAIMSASPGEKVTITCSASSSVSYMHWFQQKPGTSPKLWIYSASNLASGVPARFSGSGSGTSYSLTISRMEAEDAATYYCQQRGSYPFTFGSGTKLEIK
notes: as for B1
B3: 2-1G11 (antibody, human IgG1, V domains shown)
VH: EVQLVESRGGVVQPGRSLRLSCAASGFTFSSYGMHWVRQAPGKGLEWVAVISYDGSNKYYADSVKGRFTISRDNSKNTLYLQMNSLRAEDAAVYYCARDRVDILTGYSIYGMDVWGQGTTVTVSS
VL: EIVMTQSPATLSLSPGERATLSCRASQSVSSYLAWYQQKPGQAPRLLIYDASKRATGIPARFSGSGSGTDFTLTISSLEPEDFAVYYCQQRSNWPLTFGGGTKVEIK
B4: 35E6F7C3 (antibody, V domains shown)
VH: EVQLQQSGAELVKPGASVKLSCTAAGFNIQDTYIHWVKQRPEQGLEWIGRIDPANANTVYDPKFQGKATITADTSSNTAYLQVSSLTSEDTAVYYCASPVITAGFAYWGQGTLVTVSA
VL: QIVLTQSPAIMSASPGEKVTMTCGASSSVNYVHWYQQKSGTSPKRWIYDTSKLASGVPARFSGSGSGTSYSLTISSMEAEDAATYYCQQWTRSPLTFGAGTKVELK
notes: as for B1
B5: 89A2G5E7 (antibody, V domains shown)
VH: QVQLKESGPGLVAPSQSLSITCTVSGLSLNSHDISWIRQPPGKGLEWLGVIWSGGGTKYNSAFMSRLSISKDNSKSQVFLKMNSLHTDDTAIYYCVRTPSMITYSAMDYWGQGTSVTVSS
VL: EIVLTQSPALMAASPGEKVTITCSVSSSISSRNLHWYQQKSQTSPKAWIHATSNLASGVPVRFSGSGSGTSYSLTISSMEAEDAATYYCQQWSSYPLTFGSGTKLEIK
notes: as for B1

What was measured:
biotinylated hBLyS-ECD [1] = target: T3, biotinylated hBLyS-ECD (human, UniProt Q9Y275 134-285, biotinylated with Biotin-X-X-NHS (molar ratio 7:1); sites not stated); assay: competition ELISA; competitor 111D10D6G3
T3 construct: also called biotinylated immunogen; biotinylated hBLvS-ECD
Experimental: (§1) The purified human BLyS antibody and hybridoma antibody were subjected to competitive enzyme-linked immunosorbent assay and the epitopes binding by different antibodies were analyzed.
(§2) Purified BLyS antibody was first diluted to a final concentration of 1.0 μg/mL with PBS, then aliquoted into a 96-well ELISA plate at 50 μL per well, and the plate was subsequently sealed with plastic film and incubated at 4° C. overnight. On the next day the plate was rinsed four times with the plate washing buffer [PBS buffer containing 0.05% (v/v) Tween20] and mixed with blocking solution [PBS buffer containing 0.05% (v/v) Tween20 and 1% (w/w) BSA], and then blocked at 37° C. for 1 hour. The blocking solution was removed, and the competitive antibody and IgG control were diluted to a final concentration of 40 μg/mL with PBS and then aliquoted into the 96-well ELISA plate at 50 μL per well. The biotinylated hBLyS-ECD was then diluted with PBS to a final concentration of 2 ng/mL and pipetted into the 96-well ELISA plate at 50 μL per well. The final concentration of competitive antibody and hBLyS-ECD was 20 μg/mL and 1 ng/mL, respectively. After incubation at 37° C. for 1 hour, the plate was rinsed four times with the plate washing buffer [PBS buffer containing 0.05% (v/v) Tween20]. 100 μL per well of HRP-labeled (horseradish peroxidase) streptavidin (purchased from Sigma) was added into the plate and the plate was incubated at 37° C. for 1 hour. The plate was then washed four times with the plate washing buffer [PBS buffer containing 0.05% (v/v) Tween20]. 100 μL of TMB substrate was aliquoted into each well and after incubation at room temperature for 5 minutes, 100 μL of stop solution (1.0 N HCl) was aliquoted into each well. A₄₅₀ₙₘ values were read by an ELISA plate reader (SpectraMax M5e, purchased from Molecular Device) and the results were shown in Tables 18A-18B. […] The data shown in the table is the inhibitory rate (%) of the binding level of the original antibody to hBLyS-ECD after addition of the competitive antibody.

biotinylated hBLyS-ECD [2] = target: T3, biotinylated hBLyS-ECD; assay: competition ELISA; competitor 97A3C2H4
Experimental: as §1, §2

biotinylated hBLyS-ECD [3] = target: T3, biotinylated hBLyS-ECD; assay: competition ELISA; competitor 35E6F7C3
Experimental: as §1, §2

biotinylated hBLyS-ECD [4] = target: T3, biotinylated hBLyS-ECD; assay: competition ELISA; competitor 67A2E1D10
Experimental: as §1, §2

biotinylated hBLyS-ECD [5] = target: T3, biotinylated hBLyS-ECD; assay: competition ELISA; competitor 78C11D2D12
Experimental: as §1, §2

biotinylated hBLyS-ECD [6] = target: T3, biotinylated hBLyS-ECD; assay: competition ELISA; competitor 93C6F10D3
Experimental: as §1, §2

biotinylated hBLyS-ECD [7] = target: T3, biotinylated hBLyS-ECD; assay: competition ELISA; competitor 8E7D9C7F5
Experimental: as §1, §2

human APRIL protein [8] = target: T1, human APRIL protein; assay: ELISA, coated APRIL; antibody 0 nM (blank)
Experimental: (§3) To test whether the BLyS antibody cross-reacted with human APRIL protein, APRIL protein (purchased from R & D Systems) was first diluted to a final concentration of 1.0 μg/mL with PBS, and then 50 μL of which per well was aliquoted into a 96-well ELISA plate, and the plate was subsequently sealed with plastic film and incubated at 4° C. overnight. On the next day the plate was rinsed four times with the plate washing buffer [PBS buffer containing 0.0500 (v/v) Tween20] and a blocking solution [PBS buffer containing 0.05 (v/v) Tween20 and 1 (w/w) BSA] was added, then the protein was blocked at 37° C. for 2 hours. The blocking solution was removed and 100 μL per well of the lead antibodies prepared in Embodiment 1 and 2 were added in. After incubation for 1 hour at 37° C., the plate was rinsed four times with the plate washing buffer [PBS buffer containing 0.05 (v/v) Tween20]. HRP-labeled (horseradish peroxidase) secondary antibody (purchased from Sigma) was added in and incubated at 37° C. for 1 hour. The plate was then rinsed four times with the plate washing buffer [PBS buffer containing 0.050 (v/v) Tween20]. 100 μL of TMB substrate was aliquoted into each well and after incubation at room temperature for 5 minutes, 100 μL of stop solution (1.0 N HCl) was aliquoted into each well. A₄₅₀ₙₘ values were read via an ELISA plate reader (SpectraMax M5e purchased from Molecular Devices) and the results were shown in FIGS. 6A-6B and Table 11. […] As used herein, the IgG control is human IgG and the data in the table is GD number at 450 nm.

human APRIL protein [9] = target: T1, human APRIL protein; assay: ELISA, coated APRIL; antibody 13.3 nM
Experimental: as §3

human APRIL protein [10] = target: T1, human APRIL protein; assay: ELISA: APRIL coated at 1.0 µg/mL, antibody titrated, HRP secondary antibody
Experimental: as §3

human APRIL protein [11] = target: T1, human APRIL protein; assay: ELISA, coated APRIL; antibody 0.00427 nM
Experimental: as §3

human APRIL protein [12] = target: T1, human APRIL protein; assay: ELISA, coated APRIL; antibody 66.7 nM
Experimental: as §3

human APRIL protein [13] = target: T1, human APRIL protein; assay: ELISA, coated APRIL; antibody 2.67 nM
Experimental: as §3

human APRIL protein [14] = target: T1, human APRIL protein; assay: ELISA, coated APRIL; antibody 0.0213 nM
Experimental: as §3

[15] = target: T2, cynomolgus BLyS (full length, arginine …); assay: flow cytometry (FACS) on CHO-K1 cynoBLyS cells, Alexa 488 secondary antibody
Experimental: (§4) The medium was aspirated completely, and the cells were rinsed once with PBS buffer (purchased from Invitrogen) and then treated with cell dispersion solution (TrypLE™ Express Enzyme, purchased from Life technology) and collected. The detailed steps are as follows: the cells were rinsed once with PBS buffer, after counting, the cells were diluted to 2×10⁶ cells/ml with PBS buffer, blocked with 2% (w/w) fetal bovine serum and incubated on ice for 30 minutes. 200 μL of which per well was aliquoted into a 96-well FACS plate and centrifuged at 2000 rpm at 4° C., then each 100 μL of the lead antibodies obtained from Embodiment 1 and 2 were aliquoted into each well and incubated on ice for 1 hour. […] After centrifuged and rinsed 3 times with FACS buffer, cells were suspended with 200 μL of FACS buffer and the results were detected and analyzed by FACS (FACS Calibur, purchased from BD). It was shown in Tables 12-13 that the lead antibody could bind to human BLyS protein on the cell surface and the lead antibody could cross-react with cynomolgus BLyS. The data in the table is MFI, the average fluorescence intensity of the cell population.

human APRIL protein [16] = target: T1, human APRIL protein; assay: ELISA, coated APRIL; antibody 0.534 nM
Experimental: as §3

[17] = target: T4, human BLyS (full length, arginine 132 mutated to histidine) on CHO-K1 cells (human, UniProt Q9Y275 1-285); assay: flow cytometry (FACS) on CHO-K1 hBLyS cells, Alexa 488 secondary antibody
T4 construct: also called hBLyS; CHO-K1 hBLyS
Experimental: as §4

human APRIL protein [18] = target: T1, human APRIL protein; assay: ELISA, coated APRIL; antibody 0.107 nM
Experimental: as §3

T3 sequence (Q9Y275 134-285): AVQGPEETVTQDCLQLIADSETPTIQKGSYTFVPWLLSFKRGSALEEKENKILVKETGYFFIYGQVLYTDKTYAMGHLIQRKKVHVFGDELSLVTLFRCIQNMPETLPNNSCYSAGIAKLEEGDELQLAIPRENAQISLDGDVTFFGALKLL
T4 sequence (Q9Y275 other isoform, or with tags, fused parts or gaps limits assumed, change not shown): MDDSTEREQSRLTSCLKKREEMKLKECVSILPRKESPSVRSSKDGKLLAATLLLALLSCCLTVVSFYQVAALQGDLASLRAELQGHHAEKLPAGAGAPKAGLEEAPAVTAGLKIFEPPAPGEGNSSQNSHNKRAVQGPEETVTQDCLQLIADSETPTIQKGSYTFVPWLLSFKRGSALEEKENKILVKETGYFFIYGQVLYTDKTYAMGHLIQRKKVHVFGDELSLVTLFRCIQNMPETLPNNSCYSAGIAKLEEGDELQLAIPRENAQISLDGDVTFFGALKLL

| Binder | inhibitory rate (%) (biotinylated hBLyS-ECD [1]) | inhibitory rate (%) (biotinylated hBLyS-ECD [2]) | inhibitory rate (%) (biotinylated hBLyS-ECD [3]) | inhibitory rate (%) (biotinylated hBLyS-ECD [4]) | inhibitory rate (%) (biotinylated hBLyS-ECD [5]) | inhibitory rate (%) (biotinylated hBLyS-ECD [6]) | inhibitory rate (%) (biotinylated hBLyS-ECD [7]) | OD450 nm (human APRIL protein [8]) | OD450 nm (human APRIL protein [9]) | binding result (human APRIL protein [10]) | OD450 nm (human APRIL protein [11]) | OD450 nm (human APRIL protein [12]) | OD450 nm (human APRIL protein [13]) | OD450 nm (human APRIL protein [14]) | EC50 (read off the curve) [15] [nM] | OD450 nm (human APRIL protein [16]) | EC50 (read off the curve) [17] [nM] | OD450 nm (human APRIL protein [18]) |
| --- | --- | --- | --- | --- | --- | --- | --- | --- | --- | --- | --- | --- | --- | --- | --- | --- | --- | --- |
| B1 | 96 | 89 | 40 | 96 | 94 | 85 | 92 |  |  |  |  |  |  |  |  |  |  |  |
| B2 |  |  |  |  |  |  |  | 0.0565 | 0.0703 | no binding (tested: 66.7 nM) | 0.0564 | 0.138 | 0.0613 | 0.0534 | ~0.2 | 0.0553 | ~0.2 | 0.0549 |
| B3 |  |  |  |  |  |  |  | 0.0847 | 0.137 | no binding (tested: 66.7 nM) | 0.107 | 0.296 | 0.0901 | 0.0733 | ~0.1 | 0.0668 | ~0.09 | 0.0699 |
| B4 |  |  |  |  |  |  |  | 0.0542 | 0.0567 | no binding (tested: 66.7 nM) | 0.0553 | 0.0703 | 0.0561 | 0.0532 | ~0.7 | 0.0544 |  | 0.0537 |
| B5 |  |  |  |  |  |  |  | 0.0655 | 0.0973 | no binding (tested: 66.7 nM) | 0.0578 | 0.196 | 0.0614 | 0.0547 | ~0.7 | 0.0565 | ~0.7 | 0.0548 |
